The labels stand for the following.
B3: CD27L endolysin, full length, wild type (enzyme, bacteriophage ΦCD27, UniProt B6SBV8 1-270, looked up)
chain: MKICITVGHSILKSGACTSADGVVNEYQYNKSLAPVLADTFRKEGHKVDVIICPEKQFKTKNEEKSYKIPRVNSGGYDLLIELHLNASNGQGKGSEVLYYSNKGLEYATRICDKLGTVFKNRGAKLDKRLYILNSSKPTAVLIESFFCDNKEDYDKAKKLGHEGIAKLIVEGVLNKNINNEGVKQMYKHTIVYDGEVDKISATVVGWGYNDGKILICDIKDYVPGQTQNLYVVGGGACEKISSITKEKFIMIKGNDRFDTLYKALDFINR
notes: CD27L endolysin of bacteriophage ΦCD27 (N-acetylmuramoyl-L-alanine amidase domain, linker, C-terminal domain); 270 residues by the construct name CD27L180-270; in pET15b with an N-terminal His tag and a thrombin site; Undergoes continuous autocleavage at M186, so samples also hold the catalytic domain and the C-terminal fragment; also called CD27L (wild-type); recombinant CD27L endolysin; source: …

In series [1] the target is CTP1L endolysin, full length, wild type (bacteriophage that targets C. tyrobutyricum (phage not named)). The series can be described thus: SEC-RALS/RI/UV (size exclusion chromatography with right-angle light scattering); S75 10/300 GL column, 20 mM HEPES pH 7.4, 500 mM NaCl, room temperature, 75 µL injected at 6.37, 7.15 and 6.17 mg/mL, 0.4 mL/min.
The target of series [2] is B3. Described as above. The following applies: both partners purified.
Series [3] concerns the molecule itself. Description: crystal structure; crystals grown from full-length CD27L that held only the proteolytic C-terminal fragment; six copies in the asymmetric unit; 10-20% PEG 4000, 20 mM Tris pH 8.0; space group P212121.
Series [4] concerns the molecule itself. The series can be described thus: SAXS; CD27L C238R, 10°C, 20 mM Tris, 500 mM NaCl pH 7.4, 1.0-8.5 mg/mL; volume fractions by OLIGOMER on merged data.
Series [5] concerns the molecule itself. Description: SEC-RALS/RI/UV (size exclusion chromatography with right-angle light scattering); S75 10/300 GL column, 20 mM HEPES pH 7.4, 500 mM NaCl, room temperature, 75 µL injected at 6.37, 7.15 and 6.17 mg/mL, 0.4 mL/min. (In general: SEC sorts molecules by how far they enter the pores of the column.)

The text below walks through data of paper PMC4110038, “The CD27L and CTP1L Endolysins Targeting Clostridia Contain a Built-in Trigger and Release Factor” (PLoS Pathogens, 2014).

A word on the stoichiometry N: it is the number of molecules, sites or subunits per partner or assembly. “CTP1L endolysin, full length, wild type (enzyme)” displayed a stoichiometry N in series [1] of 2.

B1: Proteolytic fragment of CD27L (C-terminal domain released by autocleavage at M186) (domain or fragment, bacteriophage ΦCD27, UniProt B6SBV8 186-270, looked up)
chain: MYKHTIVYDGEVDKISATVVGWGYNDGKILICDIKDYVPGQTQNLYVVGGGACEKISSITKEKFIMIKGNDRFDTLYKALDFINR
notes: CD27L endolysin of bacteriophage ΦCD27, autoproteolytic C-terminal fragment; N-terminal residue identified as M186 by LC-MS; the protein ends at 270 by the construct name CD27L180-270; About 10 kDa; The N-terminal His tag of the parent stays on the catalytic domain; also called CD27L proteolytic fragment; C-terminal domain of CD27L; source: autoproteolytic product of full-length CD27L made in E. …
Regarding B1, the binding result in series [2] and in series [3] was “binds” throughout.

B2: CD27L endolysin C238R mutant, full length (enzyme, bacteriophage ΦCD27, UniProt B6SBV8 1-270, looked up)
chain: MKICITVGHSILKSGACTSADGVVNEYQYNKSLAPVLADTFRKEGHKVDVIICPEKQFKTKNEEKSYKIPRVNSGGYDLLIELHLNASNGQGKGSEVLYYSNKGLEYATRICDKLGTVFKNRGAKLDKRLYILNSSKPTAVLIESFFCDNKEDYDKAKKLGHEGIAKLIVEGVLNKNINNEGVKQMYKHTIVYDGEVDKISATVVGWGYNDGKILICDIKDYVPGQTQNLYVVGGGAREKISSITKEKFIMIKGNDRFDTLYKALDFINR
notes: CD27L endolysin of bacteriophage ΦCD27, made by site-directed mutagenesis of pET15b-cd27l; Side-by-side dimer interface mutant; also called CD27L (C238R); CD27L C239R (as printed in the SEC-RALS methods); source: E. coli BL21(DE3), purified as wild-type CD27L (Ni-NTA, SEC); not shown: His tag, N-terminal, kept
Take B2: the “stoichiometry N” value in series [4] amounted to 2.

On to B3, for which the “stoichiometry N” value in series [5] stood at 2.

B4: CD27L endolysin M186P mutant, full length (enzyme, bacteriophage ΦCD27, UniProt B6SBV8 1-270, looked up)
chain: MKICITVGHSILKSGACTSADGVVNEYQYNKSLAPVLADTFRKEGHKVDVIICPEKQFKTKNEEKSYKIPRVNSGGYDLLIELHLNASNGQGKGSEVLYYSNKGLEYATRICDKLGTVFKNRGAKLDKRLYILNSSKPTAVLIESFFCDNKEDYDKAKKLGHEGIAKLIVEGVLNKNINNEGVKQPYKHTIVYDGEVDKISATVVGWGYNDGKILICDIKDYVPGQTQNLYVVGGGACEKISSITKEKFIMIKGNDRFDTLYKALDFINR
notes: CD27L endolysin of bacteriophage ΦCD27, made by site-directed mutagenesis of pET15b-cd27l; Cleavage-site mutant; autocleavage abolished; tends to aggregate; also called CD27L M186P; source: E. coli BL21(DE3), purified as wild-type CD27L (Ni-NTA, SEC)
Regarding B4, the “stoichiometry N” value in series [5] came to 2.
